Results published in US20220235120A1 (UNIVERSITY OF MARYLAND BALTIMORE, published 2022).

Key:
[1] = molecular target: Clostridium difficile toxin A (TcdA) (Clostridium difficile, UniProt P16154 1-2710); test: cell-based or functional assay
[2] = molecular target: Clostridium difficile toxin B (TcdB) (Clostridium difficile, UniProt P18177 2-2366); test: cell-based or functional assay
Clostridium difficile toxin B (TcdB), sequence (P18177 2-2366 limits assumed): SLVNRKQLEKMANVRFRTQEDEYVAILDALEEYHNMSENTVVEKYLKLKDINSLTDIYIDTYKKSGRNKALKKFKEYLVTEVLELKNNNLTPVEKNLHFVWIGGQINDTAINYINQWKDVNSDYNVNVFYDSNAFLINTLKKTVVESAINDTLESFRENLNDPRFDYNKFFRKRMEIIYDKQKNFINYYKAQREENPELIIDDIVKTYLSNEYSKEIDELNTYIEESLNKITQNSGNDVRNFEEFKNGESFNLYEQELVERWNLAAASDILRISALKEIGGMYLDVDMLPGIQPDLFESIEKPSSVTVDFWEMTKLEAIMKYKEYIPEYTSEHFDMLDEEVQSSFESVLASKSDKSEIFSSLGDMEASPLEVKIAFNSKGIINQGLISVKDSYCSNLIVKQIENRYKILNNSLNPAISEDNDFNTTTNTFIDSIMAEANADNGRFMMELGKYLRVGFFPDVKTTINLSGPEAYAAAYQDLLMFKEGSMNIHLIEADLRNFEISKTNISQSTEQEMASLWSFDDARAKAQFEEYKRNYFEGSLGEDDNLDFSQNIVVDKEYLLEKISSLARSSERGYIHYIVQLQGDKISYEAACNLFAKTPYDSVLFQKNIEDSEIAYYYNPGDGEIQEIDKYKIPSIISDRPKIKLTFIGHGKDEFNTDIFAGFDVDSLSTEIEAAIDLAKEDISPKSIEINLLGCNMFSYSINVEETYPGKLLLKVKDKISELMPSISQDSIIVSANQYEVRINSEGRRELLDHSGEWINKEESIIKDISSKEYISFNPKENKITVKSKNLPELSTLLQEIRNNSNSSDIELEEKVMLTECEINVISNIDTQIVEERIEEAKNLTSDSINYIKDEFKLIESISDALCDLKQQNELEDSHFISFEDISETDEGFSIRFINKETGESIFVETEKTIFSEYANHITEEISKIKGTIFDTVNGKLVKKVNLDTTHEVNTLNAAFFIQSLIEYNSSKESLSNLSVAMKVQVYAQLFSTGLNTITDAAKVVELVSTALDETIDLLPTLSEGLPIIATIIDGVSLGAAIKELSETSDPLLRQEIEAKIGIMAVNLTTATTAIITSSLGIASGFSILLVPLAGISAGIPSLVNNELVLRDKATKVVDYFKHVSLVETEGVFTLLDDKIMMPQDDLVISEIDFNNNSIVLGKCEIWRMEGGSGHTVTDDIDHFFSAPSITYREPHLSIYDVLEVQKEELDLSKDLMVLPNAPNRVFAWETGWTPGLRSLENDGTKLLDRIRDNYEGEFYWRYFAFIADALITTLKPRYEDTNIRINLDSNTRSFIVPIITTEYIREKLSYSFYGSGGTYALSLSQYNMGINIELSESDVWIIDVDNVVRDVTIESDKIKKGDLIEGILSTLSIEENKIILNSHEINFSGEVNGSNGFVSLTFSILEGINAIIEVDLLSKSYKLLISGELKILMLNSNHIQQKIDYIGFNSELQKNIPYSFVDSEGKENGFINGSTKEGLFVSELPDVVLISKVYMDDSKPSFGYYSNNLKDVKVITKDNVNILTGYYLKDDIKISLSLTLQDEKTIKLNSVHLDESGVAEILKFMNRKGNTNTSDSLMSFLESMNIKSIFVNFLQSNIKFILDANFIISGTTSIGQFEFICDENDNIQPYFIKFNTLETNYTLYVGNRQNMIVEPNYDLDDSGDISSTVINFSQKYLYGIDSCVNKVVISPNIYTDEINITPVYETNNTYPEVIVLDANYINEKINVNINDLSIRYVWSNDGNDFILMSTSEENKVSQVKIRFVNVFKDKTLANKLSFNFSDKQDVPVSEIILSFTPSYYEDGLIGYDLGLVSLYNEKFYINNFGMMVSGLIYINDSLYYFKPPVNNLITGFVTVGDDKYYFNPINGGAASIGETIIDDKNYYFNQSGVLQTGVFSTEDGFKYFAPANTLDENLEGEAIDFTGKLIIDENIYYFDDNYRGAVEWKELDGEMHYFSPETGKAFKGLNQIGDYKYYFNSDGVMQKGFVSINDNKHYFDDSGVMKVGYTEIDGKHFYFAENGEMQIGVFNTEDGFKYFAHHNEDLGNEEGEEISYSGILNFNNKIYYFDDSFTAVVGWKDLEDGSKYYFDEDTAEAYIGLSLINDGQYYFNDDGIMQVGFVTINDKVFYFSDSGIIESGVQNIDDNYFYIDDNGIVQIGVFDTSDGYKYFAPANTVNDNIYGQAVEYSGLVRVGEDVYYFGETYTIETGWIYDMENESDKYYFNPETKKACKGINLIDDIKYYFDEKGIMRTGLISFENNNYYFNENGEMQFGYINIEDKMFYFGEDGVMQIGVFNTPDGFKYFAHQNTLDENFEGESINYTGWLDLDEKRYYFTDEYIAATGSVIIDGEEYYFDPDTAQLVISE

Clostridium difficile toxin A (TcdA), sequence (P16154 whole entry): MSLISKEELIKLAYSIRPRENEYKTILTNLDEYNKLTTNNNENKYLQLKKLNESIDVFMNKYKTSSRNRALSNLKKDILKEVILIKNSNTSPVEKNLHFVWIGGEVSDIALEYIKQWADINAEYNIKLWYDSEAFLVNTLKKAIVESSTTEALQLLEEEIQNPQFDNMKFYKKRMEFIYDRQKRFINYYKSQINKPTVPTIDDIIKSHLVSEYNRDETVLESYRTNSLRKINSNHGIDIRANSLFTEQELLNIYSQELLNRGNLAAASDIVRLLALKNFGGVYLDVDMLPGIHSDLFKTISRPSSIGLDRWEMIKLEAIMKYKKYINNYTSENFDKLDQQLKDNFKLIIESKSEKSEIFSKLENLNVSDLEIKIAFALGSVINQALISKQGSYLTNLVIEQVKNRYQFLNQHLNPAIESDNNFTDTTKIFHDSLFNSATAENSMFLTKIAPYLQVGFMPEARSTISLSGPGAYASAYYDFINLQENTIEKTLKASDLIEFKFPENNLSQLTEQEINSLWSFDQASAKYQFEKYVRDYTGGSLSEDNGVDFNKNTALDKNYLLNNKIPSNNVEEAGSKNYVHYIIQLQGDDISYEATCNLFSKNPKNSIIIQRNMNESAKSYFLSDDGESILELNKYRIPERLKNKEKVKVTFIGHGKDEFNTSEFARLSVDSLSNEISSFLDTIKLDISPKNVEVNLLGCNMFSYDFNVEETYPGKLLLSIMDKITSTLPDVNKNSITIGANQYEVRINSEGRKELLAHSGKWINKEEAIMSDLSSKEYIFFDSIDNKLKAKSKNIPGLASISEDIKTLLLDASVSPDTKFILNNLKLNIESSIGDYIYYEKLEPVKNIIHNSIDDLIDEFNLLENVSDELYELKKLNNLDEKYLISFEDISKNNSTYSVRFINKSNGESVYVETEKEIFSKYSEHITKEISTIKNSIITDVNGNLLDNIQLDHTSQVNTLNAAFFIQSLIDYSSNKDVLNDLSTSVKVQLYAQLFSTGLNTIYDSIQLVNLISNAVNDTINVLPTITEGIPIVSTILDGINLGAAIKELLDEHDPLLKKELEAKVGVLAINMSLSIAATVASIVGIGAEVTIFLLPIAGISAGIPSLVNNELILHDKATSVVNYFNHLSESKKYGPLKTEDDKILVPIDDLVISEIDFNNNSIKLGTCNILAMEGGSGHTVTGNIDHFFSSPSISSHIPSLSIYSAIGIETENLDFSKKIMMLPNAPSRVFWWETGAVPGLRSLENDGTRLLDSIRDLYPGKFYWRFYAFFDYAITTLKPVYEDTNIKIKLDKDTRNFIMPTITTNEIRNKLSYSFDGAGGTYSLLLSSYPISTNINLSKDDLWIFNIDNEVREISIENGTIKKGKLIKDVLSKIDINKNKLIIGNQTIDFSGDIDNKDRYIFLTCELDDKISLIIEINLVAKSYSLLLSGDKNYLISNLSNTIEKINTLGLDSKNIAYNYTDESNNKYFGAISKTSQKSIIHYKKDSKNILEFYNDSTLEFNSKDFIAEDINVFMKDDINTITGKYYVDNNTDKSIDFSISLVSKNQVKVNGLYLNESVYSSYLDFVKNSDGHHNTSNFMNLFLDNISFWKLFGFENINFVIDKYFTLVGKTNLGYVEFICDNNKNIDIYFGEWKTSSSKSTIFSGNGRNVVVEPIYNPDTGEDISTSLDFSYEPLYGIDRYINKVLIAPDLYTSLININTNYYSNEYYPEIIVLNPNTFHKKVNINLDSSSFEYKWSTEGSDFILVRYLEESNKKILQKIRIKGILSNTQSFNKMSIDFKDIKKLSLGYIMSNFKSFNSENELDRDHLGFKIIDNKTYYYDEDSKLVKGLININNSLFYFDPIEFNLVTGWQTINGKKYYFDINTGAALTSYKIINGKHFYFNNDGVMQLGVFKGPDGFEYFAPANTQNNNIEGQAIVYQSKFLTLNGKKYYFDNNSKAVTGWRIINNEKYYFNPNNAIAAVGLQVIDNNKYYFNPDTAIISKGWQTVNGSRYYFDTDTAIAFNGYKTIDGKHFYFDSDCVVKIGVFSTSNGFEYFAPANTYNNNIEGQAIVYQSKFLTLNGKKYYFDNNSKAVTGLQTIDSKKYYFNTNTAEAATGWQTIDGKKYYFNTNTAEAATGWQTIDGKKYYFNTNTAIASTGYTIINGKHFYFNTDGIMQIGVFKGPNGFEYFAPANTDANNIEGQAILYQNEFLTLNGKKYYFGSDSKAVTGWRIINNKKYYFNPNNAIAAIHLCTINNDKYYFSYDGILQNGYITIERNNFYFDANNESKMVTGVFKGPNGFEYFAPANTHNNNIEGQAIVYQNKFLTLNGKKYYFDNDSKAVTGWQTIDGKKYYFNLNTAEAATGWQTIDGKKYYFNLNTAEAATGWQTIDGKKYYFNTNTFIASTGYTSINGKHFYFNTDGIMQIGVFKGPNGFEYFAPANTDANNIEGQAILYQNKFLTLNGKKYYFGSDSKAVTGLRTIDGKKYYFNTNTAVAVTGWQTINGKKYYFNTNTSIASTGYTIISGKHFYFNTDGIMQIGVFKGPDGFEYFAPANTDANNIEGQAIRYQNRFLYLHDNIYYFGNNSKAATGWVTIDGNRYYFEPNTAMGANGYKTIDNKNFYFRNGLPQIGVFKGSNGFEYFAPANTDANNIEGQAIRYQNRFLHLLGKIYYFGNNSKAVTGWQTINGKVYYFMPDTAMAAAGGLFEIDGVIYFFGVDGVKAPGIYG

B1: FZ003 binding agent (tetra-specific, octameric VHH-IgG1 with CDR-grafted humanized VHHs) (bispecific antibody)
light: EVQLLESGGGLVQPGGSLRLSCAASGFTFSDYVMTWVRQAPGKGPEWIATINTDGSTMRDDSTKGRFTISRDNSKNTLYLQMNSLRAEDTAVYYCARGRVISASAIRGAVRGQGTLVTVSSGGGGSGGGGSGGGGSEVQLLESGGGLVQPGGSLRLSCAASGSIAGFETVTWSRQAPGKSLQWVASMTKTNNEIYSDSVKGRFTISRDNSKNTVYLQMNSLRAEDTAVYYCKGPELRGQGTLVTVSSRTVAAPSVFIFPPSDEQLKSGTASVVCLLNNFYPREAKVQWKVDNALQSGNSQESVTEQDSKDSTYSLSSTLTLSKADYEKHKVYACEVTHQGLSSPVTKSFNRGEC
heavy: not shown
In the case of B1, the “survival in mouse systemic toxin challenge (toxins pre-incubated with antibody)” value [1] is reported as > 1000 fold more potent than the Merck antibody and the “survival in mouse systemic toxin challenge (toxins pre-incubated with antibody)” value [2] is reported as > 1000 fold more potent than the Merck antibody.
